# Results from article PMC5473941.
# Assays:
# [1] = target: microtubules polymerised from tubulin (biotinylated, Alexa 647-labelled, taxol-stabilised) (UniProt P02550); assay: single-molecule TIRF microscopy; biotinylated, Alexa 647-labelled, taxol-stabilised microtubules held on PLL-PEG-biotin/streptavidin glass; TMR-dynein at 0.29 and 0.58 nM in TAB (25 mM HEPES pH 7.2, 5 mM MgSO4, 1 mM EGTA, 1 mM DTT) with α-casein, 25 mM KCl and MgATP; room temperature; Kd estimated as Koff (reciprocal of the dwell time) over Kon (binding rate) times 802 binding sites per μm
# [2] = target: human cytoplasmic dynein-1 heavy chain, wild type, as a subunit of the dynein complex (human) (UniProt Q14204); assay: electron microscopy of single particles; freshly purified protein produced in insect cells; how the proportion was counted is not told
# [3] = target: human cytoplasmic dynein-1 heavy chain, wild type, as a subunit of the dynein complex (human) (UniProt Q14204); assay: negative stain EM with 2D classification; dynein at about 0.05 mg/ml in GF150, uranyl acetate; particles sorted into phi, open or ambiguous classes; mean and SEM of 9 draws of 25 micrographs
Kd [1] [µM],percent of molecules in the phi-particle (motor domains self-dimerised) [2] [%],percent of molecules in the open form (motor domains apart) [3] [%],percent of molecules in the phi-particle (motor domains self-dimerised) [3] [%],Substance
5.22,,,,full-length human cytoplasmic dynein-1 complex with the phi-interface mutations K1610E and R1567E in the heavy chain (from UniProt Q14204 1-4646; Q13409 1-638; O43237 1-492; Q9NP97 1-96; P63167 1-89; P63172 1-113)
,> 85,22,75,"human cytoplasmic dynein-1 heavy chain, wild type, as a subunit of the dynein complex, Q14204 1-4646"
16.4,,,,"full-length human cytoplasmic dynein-1 complex, wild type (from UniProt Q14204 1-4646; Q13409 1-638; O43237 1-492; Q9NP97 1-96; P63167 1-89; P63172 1-113)"
